In the supplement of paper PMC10567573:

B1: FUT8 (parent)
chain: YPSYKVREKIETVKYPTYPEAEK

Variants of: B1
Assay: protein stability index of a GFP-peptide fusion (GPS, HEK-293T) (PSI 1-6); higher = more stable
Details: c terminus: native
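Also: lentivirally expressed fusions sorted by FACS into six bins by GFP to DsRed ratio, PSI derived from sequencing read proportions per bin multiplied by bin number.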

Protein stability index: each site, then its substitutions
K9: Y 2.56, S 4.28, D 4.14, H 3.62, F 2.64, M 4.24, N 4.38, Q 4.25, P 4.74, T 4.44, C 4.43, W 1.99, E 4.5, L 2.91, G 4.12, R 3.98, A 4.31, V 3.23, I 3.1
I10: C 4.21, A 4.19, D 4.71
R7: L 4.48, Q 4.45, Y 3.6, P 4.67, A 4.54, I 3.73, D 4.67, T 3.96, M 4.48, K 4.16, V 3.85, F 2.52, H 3.84, E 4.7, S 4.49, N 4.59, C 3.76, W 2.79, G 4.7
P2: A 3.58, G 4.05, L 3.84, Y 3.73, D 4.48, S 4.78, K 4.35, M 3.58, T 3.35, R 4.76, F 3.51, H 3.01, E 4.52, I 2.91, V 2.75, C 3.11, W 3.32, Q 2.5, N 3.9
K5: V 4.16, A 3.92, E 5.15, D 4.72, I 4.45, C 4.2, P 4.61, T 4.6, Y 3.62, Q 4.68, G 4.29, H 4.34, F 2.91, W 2.49, S 4.54, R 4.32, N 4.81, L 4.12, M 4.45
S3: P 3.35, N 4.3, R 3.79, H 4.39, K 4.78, F 3.25, T 4.19, L 4.7, G 3.92, E 4.18, Y 4.12, I 4.44, A 4.02, V 3.66, C 4.08, W 3.02, M 4.08, D 4.69
V6: P 4.62, R 4.36, C 3.91, H 4.58, M 3.86, N 4.62, G 4.18, Q 4.13, S 4.48, A 4.67, T 4.25, I 3.89, D 4.76, Y 4.15, F 2.83, L 4.69, E 4.43, K 4.55
E8: L 1.99, Y 2.28, R 3.74, T 3.43, N 4.27, W 2.13, D 4.26, S 3.57, I 2.62, C 2.62, M 2.69, P 3.72, A 3.96, H 4.28, F 2.02, Q 4.01, G 3.92, K 3.59, V 1.75
Y1: G 5.08, L 5.16, I 5.15, H 4.98, W 4.46, T 4.92, R 4.58, F 4.75, Q 4.96, M 4.7, N 5.08, P 5.38, V 4.97, S 4.96
Y4: V 4.52, E 4, Q 4.52, P 5.02, I 4.16, G 5.38, F 4.64, R 4.29, T 4.91, H 4.93, D 4.57, A 4.86, L 4.68, S 4.59, K 5.03, W 3.66, N 4.47, M 4.88, C 4.13
